Test results published in the DeepSol protein solubility set.

assay: soluble on expression in E. coli; label from the status in PepcDB or PDB records

| Sequence | soluble on expression in E. coli |
| --- | --- |
| MSLSNKDIRVVVGMSGGVDSSVTAHVLKEQGYDVIGIFMKNWDDTDENGVCTATEDYNDVIEVCNQIGIPYYAVNFEKEYWDKVFTYFLDEYKKGRTPNPDVMCNKEIKFKAFLDHAMNLGADYVATGHYARIHRHEDGHVEMLRGVDNNKDQTYFLNQLSQQQLSKVMFPIGDIEKSEVRRIAEEQGLVTAKKKDSTGICFIGEKNFKTFLSQYLPAQPGDMITLDGKKMGKHSGLMYYTIGQRHGLGIGGDGDPWFVVGKNLKDNVLYVEQGFHHDALYSDYLIASDYSFVNPEDNDLDQGFECTAKFRYRQKDTKVFVKRENDHALRVTFAEPVRAITPGQAVVFYQGDVCLGGATIDDVFKNEGQLNYVVEGHHHHHH | soluble |
| MSPSQDPSLENYRAIADGIATLFFPHAEVVLHDLRSQRVDYIANNLSKREVGDDSALEDMLEGDSDERNIGPYEKLNWDGQKIRSVSTVLRDSAGQPLAVLCINLNISLFESAKAALDLFLSPSKLIPQPDALFRDDWQERINTFLHGWLRQRQLGLNLLTREHKRELVLALHAEGAFKGKSAANYVANVLNMGRATVYKHLKELKEGGD | not soluble |
| MGSSHHHHHHSSGLVPRGSHMFADVETTCCARRTLTTIDEVPGMADETALLDWLGTMREKQPVWQDRYGVWHVFRHADVQTVLRDTATFSSDPTRVIEGASPTPGMIHEIDPPEHRALRKVVSSAFTPRTISDLEPRIRDVTRSLLADAGESFDLVDVLAFPLPVTIVAELLGLPPMDHEQFGDWSGALVDIQMDDPTDPALAERIADVLNPLTAYLKARCAERRADPGDDLISRLVLAEVDGRALDDEEAANFSTALLLAGHITTTVLLGNIVRTLDEHPAHWDAAAEDPGRIPAIVEEVLRYRPPFPQMQRTTTKATEVAGVPIPADVMVNTWVLSANRDSDAHDDPDRFDPSRKSGGAAQLSFGHGVHFCLGAPLARLENRVALEEIIARFGRLTVDRDDERLRHFEQIVLGTRHLPVLAGSSPRQSA | soluble |
| MSLKILIIEDDLALARSISHNLHDLGHFCEIISSISEENKEPYDVILVSSKVCTQGRCEHFVRYNSKQIIIMMASHVNEDGVNKPIQAGARDYILKPFKMDELLRKIQYHKAYQEMTARLGFYENYLDFIHAELPLPKDFSYRPPFIIHTPSQELANAYLLQYAKERQMDFSFFSLKDTTWKELYKNKDKLERPFYIMHLEELKKDEQLKLLELARSCPIVLSYTHKEPLEFPKIVSIECGNKPLSLFNNHTTFLSIQEYEKEAIRHFSSTCTDTELANKLGISRKSLWEKRRKYNLPREGHHHHHH | soluble |
| MPNYDATHATSTETIHYVNEDGDQVFEDGGGKLDFTRTVTIDDVTNEVVEYGEWTPVTDDEFAAVTSPDKDGYTPDTSEVAAQKPDMTDGPDGTVKDVEVTVTYTANPAVATITYVDDDENGKTVKTLEHHHHHH | soluble |
| GQSITDYNYKKPLHNDYQILDKSKIFGSNSGSFVMYSMKKDKYYIYNEKESRKRYSPNSTYKIYLAMFGLDRHIINDENSRMSWNHKHYPFDAWNKEQDLNTAMQNSVNWYFERISDQIPKNYTATQLKQLNYGNKNLGSYKSYWMEDSLKISNLEQVIVFKNMMEQNNHFSKKAKNQLSSSLLIKKNEKYELYGKTGTGIVNGKYNNGWFVGYVITNHDKYYFATHLSDGKPSGKNAELISEKILKEMGVLNGQ | soluble |
| GPMGMQSIREQSCRVVTCKTCKYTHFKPKETCVSENHDFHWHNGVKRFFKCPCGNRTISLDRLPKKHCSTCGLFKWERVGMLKEKTGPKLGG | soluble |
| MGSDKIHHHHHHMSSIYGADLRTVGERIKGERKRLGLSQTAFANLAGVGKTTQINYEKGTRNPDTEYLAALDSAGVDVYYVLTGRKSSGGSSDVQAPVEEPLDGYSPVPMYDIEAAAGAGRLIEHENIESTLYFQTQALSAEGLDPAHLIGAKVRGDSMGSTLQDGDRVIVDCSQRTPDGVFLLRVGEEYRIKRVQRVAGGAWLLISDNHAYEKEMIKPDEMQDVEILGRCRVRIGRVS | not soluble |
| MRTQWPSPAKLNLFLYITGQRADGYHTLQTLFQFLDYGDTISIELRDDGDIRLLTPVEGVEHEDNLIVRAARLLMKTAADSGRLPTGSGANISIDKRLPMGGGLGGGSSNAATVLVALNHLWQCGLSMDELAEMGLTLGADVPVFVRGHAAFAEGVGEILTPVDPPEKWYLVAHPGVSIPTPVIFKDPELPRNTPKRSIETLLKCEFSNDCEVIARKRFREVDAVLSWLLEYAPSRLTGTGACVFAEFDTESEARQVLEQAPEWLNGFVAKGANLSPLHRAMLLEHHHHHH | not soluble |
| MGSDKIHHHHHHMGLNAYIQGFNSLESIDRAPGYFKYHHHSVADHCFRTAELAQMMGDIEEVHGNKKINWKALYEKSLNHDYTERFIGDIKTPVKYATPQLRKMIGDVEETMTTKFIKEEIPKEFQEIYTRRLSEGKDDTLEGKILSVCDKLDLLYEAYGEIELGNPNPVYMQMFKESLETIKKFDDLVCVQYFIKKILPDLFKGDFAGKDKMQRIAFSILLLGDDE | not soluble |
| MNNNLLIIAGPTAVGKSDLSVDLAKKLNGEIISVDSMQIYKYMDIGSAKISKEEMGGIPHYLIDFVDPSKEFSVAEFKDLTTEKIKDIQSRGKLPILVGGTGLYINSIICNMNFAESDKDEEYREELEKIANEHGNEYLHEMLKDIDLESYNSIHFNNRKRVIRALETYKLTGKPFSSFKAKNSIYETPYNIYYYVLNMDRAKLYDRINKRVDIMFEKGLLEEVKNLKAMGLTDDMQSMKGIGYKEVLYYLDGKISLEQCIEMIKQGSRNYAKRQLTWFRKDPRAIFIDKDTFASEEDISSKIINDIINSMAGDPNSLEHHHHHH | not soluble |
| MRGSHHHHHHDDYDGIPNLTAVQISPNADPALGLEYPVRPPVPGAGGLNASAKGIHSIAIGATAEAAKGAAVAVGAGSIATGVNSVAIGPLSKALGDSAVTYGAASTAQKDGVAIGARASTSDTGVAVGFNSKADAKNSVAIGHSSHVAANHGYSIAIGDRSKTDRENSVSIGHESLNRQLTHLAAGTKDTDAVNVAQLKKEIEKTQENTNKRSAELLANANAYAD | soluble |
| MAHHHHHHMSNNYFNNEAPPDNINNLSYDEGLEQQYNFTDNEEEIFSSFFSDNKKNICLPKSLREHMLIEYTAMFVNIEGDIAEFYLKLDNDVLIKFPFLHVDHPLHRYYEFVKLNTKKRLITKYPKIIPSPLKDLFQYVTDLENTKVINNEIKSKKLKEKQIEHVKNKKGNKQILMKQKENQSYSSLFMRYMQSDDEKSNSTVENDKNEEHNEDTLSNESMMEIDNIIKKLKDKKDKSSMQTARFYLQCIEKLKFLQYGTKQYKYFVQKLLYDQNRLNVNNSDIKVRQKIHSTDFLEFLLKTDEHKKSLDNVINEDIYEQQNSHETETERDDLQTMQDYRR | not soluble |
| MPWKCYRDYNLESQILKYRTTADVIMKSMYKLEIESLKRELAEYRRGNNGSHSDCKYYDEEAREEVS | not soluble |
| MGSDKIHHHHHHMPQSDIFGKAYHEATKHSYLSVQLDPNYLDASTQPSAFKFYPKFYRRVKLNLDNPIHSFIWLTSAVTFEKVYNNVAYKLRVNPSAGALYPTEMYVQIRGMPKIVDGIYHLEVENNCLTLIYELIDDGLESYVIPTKCITGFIFLISSVYYRSSWKYKQRSLRYCLLDSGHHLGAVAASAYLHSRDIQLIFDFDKLALNTDLGFENKEFITGCAISGEIHEKQIRKLRLKVPFVCGTDYFEANQFIEDSYQATSVQPSHQQQLQQPCFDFEQDKFYQTVWNRRSIRRFRKEFISQEHYLYVLQLLQQPIPTESGEEIEIYSVIHRVEGMKSGLYKGANLVKAGDFSEHTGYLCVNQALARDCAVVLFFVSKYTSYQTAMQIAGFLGQRIYLGSNYVGIQCSGIGAFYDDETQEFLETHKDVLYATAIGT | not soluble |
| MKVRRTEQIYLKENDTISYMCHLSKNLYNQVNYILRQQFLKGEKLTGYRDLVKLFQEPSEIEDHNNYQRLPAQTAQWTVKKTVMAWYSFFKSMKAWKKHPDKFKGRPRLPGYKETDGEFLLVFTNQQCRIRDGILKFPKIMNMEVKTRLNENEIKLKEVRIVPQGTGYMIEIVYEKETADMPITKPKRAMGIDIGVRNLVTIGNNIHEIGIAVKAGLLKSINQYFNKELARYRSINDLQGNERKQTVKIRKLFMKRNRKVKDIMHKVSKSIVEYAKIMNIDTIVIGHNNRWKDSSNMGKKNNQNFVQLPFNMLIYQIKYKAEEIGITVIMQNEDYTSKCSFLDNESIEHHDTYMGKRIHRGIFRSATGKLIHADLQSSYNIIKKAIPEAFANGIEGIGLYPRSLSIRQMITSKGGCLEHHHHHH | not soluble |
| MASSMRSLFSDHGKYVESFRRFLNHSTEHQCMQEFMDKKLPGIIGRIGDTKSEIKILSIGGGAGEIDLQILSKVQAQYPGVCINNEVVEPSAEQIAKYKELVAKTSNLENVKFAWHKETSSEYQSRMLEKKELQKWDFIHMIQMLYYVKDIPATLKFFHSLLGTNAKMLIIVVSGSSGWDKLWKKYGSRFPQDDLCQYITSDDLTQMLDNLGLKYECYDLLSTMDISDCFIDGNENGDLLWDFLTETCNFNATAPPDLRAELGKDLQEPEFSAKKEGKVLFNNTLSFIVIEA | soluble |
| MGSDKIHHHHHHMISQNRLRVLARELGVRQGYAEKNYVNSWILWGIFTSDFGENLMFKGGTALSKLYFPQSWRFSEDLDFGVEGQYNGSEDDLRDVLDTVTERSGIEFTISEHHESRQQHYPTHYVDMSIQYRAVLDHPNTTSLDVMVDEYVAFDSVHHTHSYEDIPEFELQAYSVEEIFAEKLRAIFQRGAARDYYDLYQLLETESVEIEFDVVLPAFEAKCDHDDLDVDLTTGLPGDQREDIQRQWETSLPDLTGDPPLFDTVWKRLDEAVIDKGTE | not soluble |
| MSLKVIDFRFRPNTPEIISGIANSNMFRAACKAIGFEKRQPQPLEQIVEDLDKRGVVLSVISGRDSETTYGSPANNGSVLAFCRAYPERFIGFWGLDPHKGMAAVRELRHAVNELGMRGASIDPYLAHLRPDDARYYPIYAACCDLNVPVFITTAPPPQVAGAVMDYTDPRHVDIVARDFPELRIVMSHGGYPFVNEAIFACLRNANVYMDCSEYEQAPMAEAYIQAMNGIIQDKVVFASAHPFIEQADALEVYARMPLSDEARHKVMYANACKVLGIEGHHHHHH | soluble |
| MRAVRLVEIGKPLSLQEIGVPKPKGPQVLIKVEAAGVCHSDVHMRQGRFGNLRIVEDLGVKLPVTLGHEIAGKIEEVGDEVVGYSKGDLVAVNPLQGEGNCYYCRIGEEHLCDSPRWLGINFDGAYAEYVIVPHYKYMYKLRRLNAVEAAPLTCSGITTYRAVRKASLDPTKTLLVVGAGGGLGTMAVQIAKAVSGATIIGVDVREEAVEAAKRAGADYVINASMQDPLAEIRRITESKGVDAVIDLNYSEKTLSVYPKALAKQGKYVMVGLFGADLHYHAPLITLSEIQFVGSLVGNQSDFLGIMRLAEAGKVKPMITKTMKLEEANEAIDNLENFKAIGRQVLIP | soluble |
| MGSDKIHHHHHHMRASVSPDIFPPRGHEAKRLSIVDAAAGVFCREGFAGANIDLIAAEAGVSRQTVYNHHGDKEKLFMAVVRDLTDRCNVGIFATIATFPDQPGDLEADLIGFAVRLNQNCICNRDGKFLRKLIQTEGERYPELFAEWREQGPGTTLPAIAARFARLAYGGYLTIDDPDVAARQFFGLVNAELQTTFMLGGTPREDEVVRSATNGVRTFLRAFGKRPAPGSVKKHIALANA | not soluble |
| MESSSTASQSGSRREATRQKLYEAAVTLIAEQGFSATTVDEIAERAGVAKGTVYYNFASKSVLFEELLRHGVGLLTASLRQAAERTAREGRGRVDALDAMIRAGLVFIDRYPAFTQLYVAELWRTNRAWQSTLLVVRQEAVAVVEGVLREGVASGEFSEDIDVPLTAAALVGMVLVAALDWKAFQPERSLDDVHAALSRLLQGRVSGRG | not soluble |
